Reference: US20190264194A1 (published 2019)
Positions of bridges follow the written chain, without caps; N, C: chain ends. No end group written: not given here.

How the values were obtained:
[1] = biological target: T1, streptavidin (UniProt P22629 37-163, limits assumed); assay: whole-cell dissociation by flow cytometry with biotin as competitor
T1 construct: Used as phycoerythrin conjugate or on coated beads; also called SA; streptavidin-phycoerythrin
Description: (§1) To enable comparison of the phage and bacterial display peptides, a bacterial display clone was constructed with the insertion, […] (SEQ ID NO:65), and the KD and kdiss were measured in whole cell assays.
(§2) To obtain equilibrium binding curves, cells were labeled over a range of concentrations, e.g., about 0.1 to about 200 nM, of fluorescently conjugated target proteins (streptavidin-phycoerythrin or CRP-Alexa Fluor® 488) and analyzed by flow cytometry, as above. The corresponding mean fluorescence versus concentration data were fit to a monovalent binding isotherm to obtain the apparent KD. Dissociation rates of streptavidin-binding clones were measured in the presence of about 1 to about 2 μM biotin. Cells were labeled with 50 nM streptavidin-phycoerythrin for 30 minutes at room temperature. The cells were then pelleted, resuspended in PBS with biotin, and immediately analyzed by flow cytometry. Fluorescence data were collected continuously for about five minutes. The dissociation rate constants were then determined as described previously. See Daugherty, P. S., et al. (1998) Protein Eng. 11(9):825-832, which is herein incorporated by reference.

[2] = biological target: T1, streptavidin; assay: apparent whole-cell KD, flow cytometry with streptavidin-phycoerythrin
Description: as §1, §2

[3] = biological target: T1, streptavidin; assay: selection from the E. coli OmpA display library
[4] = biological target: T1, streptavidin; assay: apparent whole-cell KD, flow cytometry with streptavidin-phycoerythrin; remark: listed apart in the source
Description: as §2

[5] = biological target: T1, streptavidin; assay: whole-cell dissociation by flow cytometry, 1-2 uM biotin as competitor
Description: The apparent binding affinities of a subset of the selected peptides were determined using flow cytometric analysis. […] See Daugherty, P. S., et al. (1998) Protein Eng. 11(9):825-832, which is herein incorporated by reference. […] See Daugherty, P. S., et al. (1998) Protein Eng. 11(9):825-832; and Feldhaus, M. J., et al. (2003) Nat. Biotechnol. 21(2): 163-170, which are herein incorporated by reference. […] Apparent dissociation rate constants (kdiss) were determined for streptavidin, using about 1 to about 2 μM biotin as a competitor to prevent re-binding.
as §2

[6] = biological target: T1, streptavidin; assay: equilibrium dissociation constant of a selected displayed peptide, whole-cell flow cytometry
Description: as §2

[7] = biological target: T1, streptavidin; assay: whole-cell dissociation by flow cytometry (FIG. 10B), SA-7 against SA-1
Description: as §2

B1: Clone HPQ (peptide)
peptide: SAECHPQGPPCIEGR
modifications: disulfide 4-11 (inferred)
notes: Insert only; also called cyclic HPQ clone
fold faster dissociation rate (kdiss) against clone SA-1 [1]: 20 fold
fold higher apparent KD against clone SA-1 [2]: 5 fold

QVKLHPMAPVVPSHW [SEQ ID NO 243]
binding result [3]: binds

TVLICMNICWTGETQ (Insert only) [SA-3]
koff [1]: 0.0007 s⁻¹
Kd [4]: 4 nM
koff [5]: ~0.001 s⁻¹
Kd [6]: 4 nM

NEWYCQNVCERMPHS (Insert only) [SA-7]
koff [5]: ~0.01 s⁻¹
fold difference of dissociation rate constant against SA-1 [7]: 4 fold
